In patent US20130324477:

Biological target: T1, recombinant filaggrin-2 (FLG2), positions 2 to 213 of Q5D862, fused to a Thioredoxin-His-S.Tag affinity label, Q5D862
T1 chain: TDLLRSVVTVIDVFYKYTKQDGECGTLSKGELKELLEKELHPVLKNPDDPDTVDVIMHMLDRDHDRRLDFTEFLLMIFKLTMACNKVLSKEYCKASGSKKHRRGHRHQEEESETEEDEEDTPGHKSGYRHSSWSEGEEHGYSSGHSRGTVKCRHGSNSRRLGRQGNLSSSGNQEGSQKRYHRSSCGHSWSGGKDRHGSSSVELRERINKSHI

B1: recombinant 28 kDa SASPase (SASPase-28), positions 85 to 343 of Q53RT3 (protein)
chain: MAGSGARSEEGRRQHAFVPEPFDGANVVPNLWLHSFEVINDLNHWDHITKLRFLKESLRGEALGVYNRLSPQDQGDYGTVKEALLKAFGVPGAAPSHLPKEIVFANSMGKGYYLKGKIGKVPVRFLVDSGAQVSVVHPNLWEEVTDGDLDTLQPFENVVKVANGAEMKILGVWDTAVSLGKLKLKAQFLVANASAEEAIIGTDVLQDHNAILDFEHRTCTLKGKKFRLLPVGGSLEDEFDLELIEEDPSSEEGRQELSH
With B1 the “enzymatic activity of SASPase (hydrolysis of Dabcyl-QIDRIMEK-Edans, EDANS fluorescence at 340/490 nm)” value was “the enzymatic activity of SASPase is significantly increased in the presence of an increasing concentration of FLG2-Hs”.
